According to paper PMC9255746:

Target: Paracoccidioides americana (Pb03) Cbp1 (Paracoccidioides americana (Pb03))
Experiment: crystal structure

Paracoccidioides americana (Pb03) Cbp1 (natural protein)
stoichiometry N: 2
